Consider one molecule from patent publication US20110243955A1 (FUSION ANTIBODIES, published 2011).

The target in experiment [1] is T1, recombinant human Cat S (Calbiochem) (human, UniProt P25774 115-331, limits assumed).
T1 construct: Bought enzyme used in the fluorimetric activity assays; also called cathepsin S
Description: fluorimetric enzyme assay with Cbz-Val-Val-Arg-AMC; progress curves of a slow-binding inhibitor fitted by non-linear regression (Morrison and Walsh, GraFit). On the procedure: FIG. 12. Quantification of inhibitory activity of Cat S MAb1 (Mab 1E11). Rates from the progress curves of (Mab 1E11) [FIG. 11], which were indicative of a slow binding inhibitor, were fitted by non-linear regression using GraFit software according to the method of Morrison and Walsh, 1988.
The inhibitory effect of the monoclonal antibodies were determined by a flurometric assay, using a Cat S synthetic substrate Z-Val-Val-Arg-AMC (Bachem) and recombinant human Cat S (Calbiochem). The recombinant Cat S enzyme was activated at 37° C. in sodium acetate buffer (100 mM sodium acetate, 1 mM EDTA, 0.1% Brij90, pH 5.5), and 2 mM dithiothreitol (DTT) for 30 mins prior to assay. Assays were carried out using 190 μl of sodium acetate/DTT buffer (90:1), 1 μl of activated Cat S, 12.5 μl of 10 mM Cbz-Val-Val-Arg-AMC substrate and 50 μl of non-purified monoclonal antibody supernatant. Fluorescence was measured at 375 nm excitation and 460 nm emission wavelengths every 5 mins for 4 hrs (FIG. 8). […]
The purified monoclonal antibodies were analysed by flurometric assay for quantification of their ability to inhibit the activity of Cat S. The principles of this assay are the same as that previously used. Fluorescence was measured at 375 nm excitation and 460 nm emission wavelengths every minute for 1 hr. […]

Experiment [2] concerns the target T2, human cathepsin L (recombinant) (human, UniProt P07711 114-333, limits assumed).
T2 construct: Called 'purified CatL' in the activity assay; also called CatL; Cat L
Kind of experiment: western blot of recombinant cathepsins. How it is done:
(§1) FIG. 15 MAb1 specifically binds Cat S on western blot. The antibody was used to probe against human cathepsin B, L, S and K (100 ng each).
(§2) Western blots were performed as described before to show specificity of the antibody binding to Cat S and not to CatB, L or K. Briefly, 100 ng of recombinant Cat S, K, L and B were loaded onto a SDS-PAGE gel, then transferred onto Hybond-C Extra nitrocellulose membrane (Amersham. Biosciences). The membrane was blocked by incubation in PBS/5% marvel for 1 hr at room temperature, after which it was rinsed briefly in PBS. The monoclonal antibodies were used at a 1:500 dilution in PBS and incubated on the membrane overnight at 4° C. while gently rocking. The blot was then rinsed three times with PBS/1% marvel and 0.1% Tween-20 and then incubated with the goat anti-mouse HRP conjugated secondary antibody at a 1:3000 dilution for 1 hr at room temperature while shaking. The blot was then rinsed three times with the PBS/1% marvel and 0.1% Tween-20 solution, followed by a short rinse in PBS. The blot was incubated with ECL plus substrate (Amersham Biosciences) for 5 mins at room temperature before development using Kodak photographic film under safe light conditions (FIG. 15).
(A western blot detects proteins with antibodies after separation by electrophoresis.)

Experiment [3] has as its target T3, human cathepsin K (recombinant) (human, UniProt P43235 115-329, limits assumed).
T3 construct: Called 'purified CatK' in the activity assay; also called CatK; Cat K
T3 sequence (looked up): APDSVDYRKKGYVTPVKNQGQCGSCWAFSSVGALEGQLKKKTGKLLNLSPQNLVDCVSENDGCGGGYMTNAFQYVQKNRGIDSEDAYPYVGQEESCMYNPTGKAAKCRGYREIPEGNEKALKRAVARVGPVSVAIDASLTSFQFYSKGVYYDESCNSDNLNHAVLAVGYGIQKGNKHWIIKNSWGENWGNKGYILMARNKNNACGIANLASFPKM
Kind of experiment: western blot of recombinant cathepsins. On the procedure: as §1, §2

For experiment [4], the target named is human cathepsin B (recombinant) (human, UniProt P07858 80-333). Kind of experiment: western blot of recombinant cathepsins. On the procedure: as §1, §2

For orientation: Ki means a dissociation constant, usually derived from enzyme kinetics or from competition with a known ligand.

T2 sequence (P07711 114-333 limits assumed): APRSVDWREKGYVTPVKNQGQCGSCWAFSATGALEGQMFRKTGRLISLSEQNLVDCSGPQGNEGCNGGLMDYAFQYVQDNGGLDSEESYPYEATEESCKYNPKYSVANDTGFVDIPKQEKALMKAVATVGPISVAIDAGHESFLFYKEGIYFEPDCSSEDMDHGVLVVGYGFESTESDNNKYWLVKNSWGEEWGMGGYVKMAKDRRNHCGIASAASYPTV
T1 sequence (P25774 115-331 limits assumed): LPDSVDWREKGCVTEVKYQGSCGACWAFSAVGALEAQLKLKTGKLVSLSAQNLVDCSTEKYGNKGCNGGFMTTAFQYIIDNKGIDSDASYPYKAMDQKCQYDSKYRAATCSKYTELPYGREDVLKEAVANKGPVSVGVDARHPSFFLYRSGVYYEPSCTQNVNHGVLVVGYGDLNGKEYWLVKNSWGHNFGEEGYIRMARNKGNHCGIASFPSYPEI

B1: Cat S inhibitory monoclonal antibody Mab 1E11 (antibody, V domains shown)
VH: VQLQESGGVLVKPGGSLKLSCAASGFAFSSYDMSWVRQTPEKRLEWVAYITTGGVNTYYPDTVKGRFTISRDNAKNTLYLQMSSLKSEDTAMYYCARHSYFDYWGQGTTVTVSS
VL: DVLMTQTPLSLPVSLGDQASISCRSSQSLVHSNGNTYLHWYLQKPGQSPKLLIYKVSNRFSGVPDRFSGSGSGTDFTLKISRVEAEDLGVYFCSQTTHVPPTFGSGTKLEIKR
notes: Whole mouse monoclonal antibody from a hybridoma (BALB/C mice), purified from supernatant; also called Cat S MAb1
For the molecule B1, in experiment [1], the Ki was 533 nM. For the same molecule, the binding result in experiment [2], in experiment [3] and in experiment [4] was “no binding” throughout.
